Data on 1 molecule can be found in patent publication US11648277B2, “Combination therapy with gold controlled transgenes” (Chimera Bioengineering, Inc., priority 2019, dated 2023).

The test system of one series is T-cells. Briefly: Removal of microRNA binding sites from an RDE, expression from constructs. Format: cell-based. Particulars: MIR186 micro-RNA sites removed from the 3′-UTR of IL-2. The source says:
The AU-rich element from the 3′-UTR of IL-2 has mir-181 and mir 186 microRNA binding sites. Different combinations of the microRNA sites were removed from the 3′-UTR of IL-2. When the MIR186 micro-RNA sites were removed from the 3′-UTR of IL-2 the dynamic range of expression from constructs with this UTR increased 50 fold. The modified IL-2, 3′-UTR replaces CTT in the sequence with GAA and is shown below (the new GAA is underlined in the sequence):
Different combinations of the micro-RNA sites were removed from the 3′UTR of IFNg and tested for increased expression. When the mir125 micro-RNA sites were removed from the 3′-UTR of IFN-γ the expression rate from constructs with this UTR is increased.
Expression of GFP in T-cells, transfected with the RDE-GFP plus the microRNA sites, is compared to expression of GFP in T-cells with the RDE-GFP in which the microRNA sites have been removed, following activation with CD3/CD28 beads for 24 hours. The removal of the microRNA sites increased expression of the GFP by a factor of between 2-5 after 24 hours, relative to the cells with microRNA sites.

A further series deals with CD4+ T-cells. Kind of series: Luciferase-RDE bioluminescence in anti-CD19 CAR T-cells, resting vs Raji co-culture. It counts as cell-based. Particulars: for increase in bioluminescence with CAR stimulation: Raji co-culture 24 h vs resting. The source says: Combinations of these inserts/cassettes shown in FIG. 3 were placed in the similar lenti virus constructs. The anti-CD19 CAR cassette and the insert with the luciferase-RDE are transcribed in opposite directions, and the control regions for each are located in between the two insert/cassettes. The control region for the Luciferase-RDE insert and Luciferase-3′-UTR were either a MinP promoter or an NFAT promoter. The control region of the anti-CD19 CAR cassette was the MND promoter, and CD4+ T-cells were transduced with the bicistronic construct.
The transduced T cells were allowed to return to resting state, and then were tested after stimulation as follows. For the ‘no stimulation’ set, transduced T-cells were incubated for 24 h alone in medium. For the ‘Raji co-culture’ set CD19+ Raji B cells were incubated with the transduced T cells for 24 h. At 24 h, the T cells were stained for CD25 and CD69, which are activation markers, and subject to flow cytometry to measure these markers and luciferase expression in the T cells.

B1: RDE3: 3′-UTR of IL-2 modified to remove the mir186 sites (SEQ ID NO: 22) (nucleic acid, listed as Homo sapiens)
DNA: TAATTAAGTGCTTCCCACTTAAAACATATCAGGCCTTCTATTTATTTAAATATTTAAATTTTATATTTATTGTTGAATGTATGGTTTGCTACCTATTGTAACTATTATTCTTAATCTTAAAACTATAAATATGGATCTTTTATGATTGAATTTGTAAGCCCTAGGGGCTCTAAAATGGTTTCACTTATTTATCCCAAAATATTTATTATTATGTTGAATGTTAAATATAGTATCTATGTAGATTGGTTAGTAAAACTATTTAATAAATTTGATAAATATAAA
As to B1, the “increase of dynamic range of expression” value with T-cells is reported as 50 fold. The results for the “increase in bioluminescence with CAR stimulation” value in the series with CD4+ T-cells (MinP promoter) and with CD4+ T-cells (NFAT promoter) were 1.4 fold and 1.3 fold, respectively. For the same molecule, the “amount of bioluminescence, rank among RDE constructs” value with CD4+ T-cells (with either promoter) is recorded as “highest amount of bioluminescence”.
